# Measured values reported in US20250339501A1, “COMPOSITIONS AND METHODS FOR TREATING METABOLIC DISEASE” (The Regents of the University of California, priority 2021, published 2025).
# B1: rDj1: full-length recombinant Dj1 protein; mouse protein (Novus, NBP2-59523) injected in mice, human protein used in HepG2 cells (protein, UniProt Q99LX0 1-189, looked up)
# chain: MASKRALVILAKGAEEMETVIPVDVMRRAGIKVTVAGLAGKDPVQCSRDVMICPDTSLEDAKTQGPYDVVVLPGGNLGAQNLSESPMVKEILKEQESRKGLIAAICAGPTALLAHEVGFGCKVTTHPLAKDKMMNGSHYSYSESRVEKDGLILTSRGPGTSFEFALAIVEALVGKDMANQVKAPLVLKD
# modifications: full-length
# notes: full-length recombinant Dj1 protein; mouse protein (Novus, NBP2-59523) injected in mice, human protein used in HepG2 cells
# Assays:
# AML12 cells = assay: Fluorescent-labeled rDj1 binding to plasma membrane of liver cells; assay type: cell-based, mouse; conditions: Alex 488-labeled rDj1 added to medium, fluorescent microscopy
# Method: (§1) Myokines contribute to whole-body metabolism by directly signaling to distant organs (15-18). To determine which organs Dj1 targets, WT mice were tail-vein injected with a recombinant Dj1 (rDj1) protein labeled with the near-infrared fluorescent dye IRDye 800CW, and the fluorescent signals were tracked using an optical imaging system (FIGS. 3I, 3J). A robust fluorescent signal could be detected within 5 minutes post-injection. […] Considering that the reagents injected through tail-vein often nonspecifically target the liver, fluorescent-labeled rDj1 was used to determine whether Dj1 could bind to the plasma membrane of liver cells. rDj1 was labeled with Alex 488 and added into the medium of mouse liver cells (AML12 cells) at the indicated time.
# [1] = Intravital imaging of IRDye 800CW-labeled Dj1 after tail-vein injection; assay type: in vivo, mouse; conditions: WT mice
# Method: Recombinant mouse Dj1 protein (NBP2-59523, Novus) were labeled with near-infrared dyes using IRDye 800CW protein labeling kit-Low MW (Li-COR Biosciences) as described in the manufacturer's instructions. 10 μg of labeled Dj1 protein was injected into wild-type C57BL/6J mouse through the tail vein. The mice were imaged at the indicated time using an IVIS Spectrum (PerkinElmer). For tissue analysis, recipient mice were euthanized by cervical dislocation, and tissues were then dissected and imaged. Fluorescence was detected using excitation and emission filters at 745 nm and 800 nm, respectively.
# as §1
# HepG2 cells [2] = assay: OCR/ECAR and mitochondrial ATP production in HepG2 cells; assay type: cell-based, human
# Method: (§2) Mouse myoblast cells (C2C12) were maintained in high glucose DMEM/high, 10% fetal bovine serum with penicillin/streptomycin. pRK5-Dj1-HA plasmid was purchased from Addgene (#29396). Seeded cells were cultured in 6-well plates for 24 hours prior to transfection. Transfections were performed using Lipofectamine 2000 and PLUS reagent according to manufacturer instructions (Invitrogen, Carlsbad, CA). Human HepG2 cells were cultured in DMEM/low media containing 10% fetal bovine serum with penicillin/streptomycin. Mouse AML12 cells were maintained in DMEM/F12, ITS supplement (Gibco, USA), 40 ng/ml dexamethasone, and 10% fetal bovine serum with penicillin/streptomycin. For in vitro experiments, HepG2 cells were treated with or without recombinant human Dj1 protein (Novus, NBC1-18334) in serum-free media containing 25 mM glucose, 200 μM palmitic acid, and 0.25% bovine serum albumin for an indicated time.
# AMPK = AMPK phosphorylation immunoblot in HepG2 cells; assay type: cell-based, human
# Method: as §2
# mitochondrial complex I = assay: Complex I activity of isolated liver mitochondria from treated HFD-fed mice; assay type: in vivo, mouse
# PPARα = PPARα expression and transcriptional activity in the liver; assay type: in vivo, mouse; conditions: liver of NC-fed mice
# Method: (§3) Also, the transcriptional activity of PPARα was determined to be elevated by Dj1 administration in the liver of both NC- and HFD-fed mice (FIGS. 6L, 6M, 6S, 6T). Furthermore, Dj1 elevated plasma β-hydroxybutyrate (a ketone body) levels in NC-fed mice but not in HFD-fed mice (FIG. 6N, 6U).
# mitochondrial complex II = assay: Complex II activity of isolated liver mitochondria from treated HFD-fed mice; assay type: in vivo, mouse
# [3] = tested on: liver inflammation, de-novo lipogenesis and gluconeogenesis genes; assay: Gene expression in the liver of NC- or HFD-fed mice; assay type: in vivo, mouse
# Method: (§4) A wide variety of mechanisms activate the JNK pathway. […] Moreover, ASK1 is activated by various stresses, including oxidative stress, ER stress, calcium overload, and receptor-mediated inflammatory signals such as TNFα and lipopolysaccharide (LPS) (26,27). rDj1 administration suppressed both baseline and TNFα-induced ROS levels in HepG2 cells, which may contribute to reducing liver inflammation (FIG. 6F).
# as §3
# ACC = ACC phosphorylation immunoblot in HepG2 cells; assay type: cell-based, human
# Method: as §2
# JNK = JNK phosphorylation immunoblot in liver of HFD-fed mice; assay type: in vivo, mouse
# Excerpt: As described above, Dj1 administration stimulates AMPK phosphorylation in the liver cells. However, elevated AMPK phosphorylation in vivo was not observed (data not shown). Numerous studies have reported that the c-Jun N terminal kinase (JNK) is critical to the development of steatosis and chronic liver injury in NAFLD (22-25). […] However, not all MAPK pathways were activated. For example, phosphorylation of p42 was not altered by tDj1 treatment (FIG. 6O). Both rDj1 and tDj1 suppressed TNFα and Anisomycin-induced JNK (p54 and p46) phosphorylation in human HepG2 and mouse AML12 liver cells, respectively (FIGS. 6C-6D).
# HepG2 cells [4] = assay: Reactive oxygen species in HepG2 cells; assay type: cell-based, human; conditions: baseline and TNFα-induced
# Excerpt: as §4
molecule,measurement,setting,value
B1,localization of labeled rDj1 on liver cells,AML12 cells,colocalized with the plasma membrane
same,organs in which most fluorescent signals accumulated,"[1]; 4 hours post-injection, tail-vein","accumulated in the liver, kidney, and urine"
same,time until robust fluorescent signal detected post-injection,"[1]; IRDye 800CW-labeled rDj1, tail-vein",≤ 5 min
same,mitochondrial ATP production rate,HepG2 cells [2],enhanced
same,oxygen consumption rate/extracellular acidification rate (OCR/ECAR),HepG2 cells [2],enhanced
same,phosphorylation of AMPK,AMPK,elevated
same,mitochondrial complex I activity,mitochondrial complex I,Enhanced
same,transcriptional activity of PPARα,PPARα,elevated
same,mitochondrial complex II activity,mitochondrial complex II,Enhanced
same,reduction of gene expression of de-novo lipogenesis,[3]; liver of HFD-fed mice,blunted
same,reduction of gene expression of gluconeogenesis,[3]; liver of HFD-fed mice,blunted
same,gene expression of de-novo lipogenesis,[3]; liver of NC-fed mice,reduced
same,gene expression of gluconeogenesis,[3]; liver of NC-fed mice,reduced
same,phosphorylation of ACC,ACC,elevated
same,JNK (p46 subunit) phosphorylation,JNK,significantly reduced
same,ROS levels,HepG2 cells [4],suppressed
